Experimental data as given in patent US20200087373A1 (UNIVERSITY OF COPENHAGEN, published 2020).
Ends that are not written are not given here. * marks the point of attachment. C16 diacid = O=C(O)CCCCCCCCCCCCCCC(=O)*; Palmitoyl = CCCCCCCCCCCCCCCC(=O)*; Lauroyl = CCCCCCCCCCCC(=O)*

Assays:
human serum albumin = target: T1, human serum albumin (human, UniProt P02768 25-609); test: 125I-human GIP competition binding on hGIPR COS-7 cells with and without 2% HSA; fold change of IC50 taken as HSA binding
T1 construct: also called HSA; human albumin
Procedure: (§1) After incubation, the cells were washed twice in ice-cold binding buffer (+/−2% HSA) and lysed using 200 mM NaOH with 1% SDS for 30 min. Nonspecific binding was determined as the binding of radioactive ligand to untransfected cells.

human GIP receptor [1] = target: T2, human GIP receptor (human, UniProt P48546 22-466); test: ratio of IC50 with 2% HSA to IC50 with 0.1% casein, 125I-hGIP competition binding on hGIPR COS-7 cells
T2 construct: whole, on cells; Transiently transfected COS-7 cells expressing the human GIP receptor; also called hGIPR
T2 sequence (looked up): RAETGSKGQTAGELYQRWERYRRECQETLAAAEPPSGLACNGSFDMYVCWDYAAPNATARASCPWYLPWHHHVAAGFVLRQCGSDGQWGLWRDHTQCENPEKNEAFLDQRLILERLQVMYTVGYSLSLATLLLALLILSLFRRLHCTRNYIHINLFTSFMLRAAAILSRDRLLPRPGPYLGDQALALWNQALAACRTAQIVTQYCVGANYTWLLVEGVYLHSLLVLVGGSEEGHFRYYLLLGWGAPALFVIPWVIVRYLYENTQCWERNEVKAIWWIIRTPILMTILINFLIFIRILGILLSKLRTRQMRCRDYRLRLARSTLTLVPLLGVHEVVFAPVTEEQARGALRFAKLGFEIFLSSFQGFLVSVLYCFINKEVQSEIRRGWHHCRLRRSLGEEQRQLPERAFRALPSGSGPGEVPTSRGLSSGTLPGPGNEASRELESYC
Procedure: as §1

human GIP receptor [2] = target: T2, human GIP receptor; test: cell-based or functional assay
human GIP receptor [3] = target: T2, human GIP receptor; test: 125I-hGIP competition binding on hGIPR COS-7 cells; fold in affinity, paired, reference taken as GIP(3-30)NH2
Procedure: as §1

human GIP receptor [4] = target: T2, human GIP receptor; test: 125I-hGIP(1-42) competition binding, COS-7 cells expressing human GIPR, 2% HSA
Procedure: as §1

human GIP receptor [5] = target: T2, human GIP receptor; test: 125I-hGIP(1-42) competition binding, COS-7 cells expressing human GIPR, 0.1% casein (no HSA)
Procedure: as §1

human GIP receptor [6] = target: T2, human GIP receptor; test: 125I-hGIP(1-42) competition binding, COS-7 cells expressing human GIPR
Procedure: as §1

T1 sequence (P02768 25-609 limits assumed): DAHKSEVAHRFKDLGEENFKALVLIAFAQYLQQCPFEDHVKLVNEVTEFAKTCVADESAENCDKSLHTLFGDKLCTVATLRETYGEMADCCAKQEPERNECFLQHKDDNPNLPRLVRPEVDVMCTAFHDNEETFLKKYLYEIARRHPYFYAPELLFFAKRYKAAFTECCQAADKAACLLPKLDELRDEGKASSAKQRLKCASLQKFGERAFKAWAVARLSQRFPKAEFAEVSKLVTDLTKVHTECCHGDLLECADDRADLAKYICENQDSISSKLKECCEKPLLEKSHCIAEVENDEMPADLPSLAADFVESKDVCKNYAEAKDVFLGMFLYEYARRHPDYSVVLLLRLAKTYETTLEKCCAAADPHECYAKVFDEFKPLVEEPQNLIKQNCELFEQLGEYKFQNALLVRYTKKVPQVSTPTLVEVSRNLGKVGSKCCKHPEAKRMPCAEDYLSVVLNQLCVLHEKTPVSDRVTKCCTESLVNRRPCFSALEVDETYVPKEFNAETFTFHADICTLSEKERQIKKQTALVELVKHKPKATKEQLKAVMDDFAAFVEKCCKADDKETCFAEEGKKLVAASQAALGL

B1: AT169 [hGIP(5-30)NH2[I7K]-C16diacid/7] (peptide)
peptide: TFK(C16 diacid)SDYSIAMDKIHQQDFVNWLLAQK-NH2
modifications: N-terminus assumed
SMILES: CC[C@H](C)[C@H](NC(=O)[C@H](CO)NC(=O)[C@H](Cc1ccc(O)cc1)NC(=O)[C@H](CC(=O)O)NC(=O)[C@H](CO)NC(=O)[C@H](CCCCNC(=O)CCCCCCCCCCCCCCC(=O)O)NC(=O)[C@H](Cc1ccccc1)NC(=O)[C@@H](N)[C@@H](C)O)C(=O)N[C@@H](C)C(=O)N[C@@H](CCSC)C(=O)N[C@@H](CC(=O)O)C(=O)N[C@@H](CCCCN)C(=O)N[C@H](C(=O)N[C@@H](Cc1c[nH]cn1)C(=O)N[C@@H](CCC(N)=O)C(=O)N[C@@H](CCC(N)=O)C(=O)N[C@@H](CC(=O)O)C(=O)N[C@@H](Cc1ccccc1)C(=O)N[C@H](C(=O)N[C@@H](CC(N)=O)C(=O)N[C@@H](Cc1c[nH]c2ccccc12)C(=O)N[C@@H](CC(C)C)C(=O)N[C@@H](CC(C)C)C(=O)N[C@@H](C)C(=O)N[C@@H](CCC(N)=O)C(=O)N[C@@H](CCCCN)C(N)=O)C(C)C)[C@@H](C)CC
Question: Does B1 bind (human serum albumin)?
Answer: binds

B2: AT175 [hGIP(5-30)NH2[A13K]-C16diacid/13] (peptide)
peptide: TFISDYSIK(C16 diacid)MDKIHQQDFVNWLLAQK-NH2
modifications: N-terminus assumed
SMILES: CC[C@H](C)[C@H](NC(=O)[C@H](CCCCN)NC(=O)[C@H](CC(=O)O)NC(=O)[C@H](CCSC)NC(=O)[C@H](CCCCNC(=O)CCCCCCCCCCCCCCC(=O)O)NC(=O)[C@@H](NC(=O)[C@H](CO)NC(=O)[C@H](Cc1ccc(O)cc1)NC(=O)[C@H](CC(=O)O)NC(=O)[C@H](CO)NC(=O)[C@@H](NC(=O)[C@H](Cc1ccccc1)NC(=O)[C@@H](N)[C@@H](C)O)[C@@H](C)CC)[C@@H](C)CC)C(=O)N[C@@H](Cc1c[nH]cn1)C(=O)N[C@@H](CCC(N)=O)C(=O)N[C@@H](CCC(N)=O)C(=O)N[C@@H](CC(=O)O)C(=O)N[C@@H](Cc1ccccc1)C(=O)N[C@H](C(=O)N[C@@H](CC(N)=O)C(=O)N[C@@H](Cc1c[nH]c2ccccc12)C(=O)N[C@@H](CC(C)C)C(=O)N[C@@H](CC(C)C)C(=O)N[C@@H](C)C(=O)N[C@@H](CCC(N)=O)C(=O)N[C@@H](CCCCN)C(N)=O)C(C)C
Question: Does B2 bind (human serum albumin)?
Answer: binds

B3: AT181 [hGIP(5-30)NH2[D21K]-C16diacid/21] (peptide)
peptide: TFISDYSIAMDKIHQQK(C16 diacid)FVNWLLAQK-NH2
modifications: N-terminus assumed
SMILES: CC[C@H](C)[C@H](NC(=O)[C@H](CO)NC(=O)[C@H](Cc1ccc(O)cc1)NC(=O)[C@H](CC(=O)O)NC(=O)[C@H](CO)NC(=O)[C@@H](NC(=O)[C@H](Cc1ccccc1)NC(=O)[C@@H](N)[C@@H](C)O)[C@@H](C)CC)C(=O)N[C@@H](C)C(=O)N[C@@H](CCSC)C(=O)N[C@@H](CC(=O)O)C(=O)N[C@@H](CCCCN)C(=O)N[C@H](C(=O)N[C@@H](Cc1c[nH]cn1)C(=O)N[C@@H](CCC(N)=O)C(=O)N[C@@H](CCC(N)=O)C(=O)N[C@@H](CCCCNC(=O)CCCCCCCCCCCCCCC(=O)O)C(=O)N[C@@H](Cc1ccccc1)C(=O)N[C@H](C(=O)N[C@@H](CC(N)=O)C(=O)N[C@@H](Cc1c[nH]c2ccccc12)C(=O)N[C@@H](CC(C)C)C(=O)N[C@@H](CC(C)C)C(=O)N[C@@H](C)C(=O)N[C@@H](CCC(N)=O)C(=O)N[C@@H](CCCCN)C(N)=O)C(C)C)[C@@H](C)CC
Question: Does B3 bind (human serum albumin)?
Answer: binds

B4: AT173 [hGIP(5-30)NH2[S11K]-C16diacid/11] (peptide)
peptide: TFISDYK(C16 diacid)IAMDKIHQQDFVNWLLAQK-NH2
modifications: N-terminus assumed
SMILES: CC[C@H](C)[C@H](NC(=O)[C@H](CCCCNC(=O)CCCCCCCCCCCCCCC(=O)O)NC(=O)[C@H](Cc1ccc(O)cc1)NC(=O)[C@H](CC(=O)O)NC(=O)[C@H](CO)NC(=O)[C@@H](NC(=O)[C@H](Cc1ccccc1)NC(=O)[C@@H](N)[C@@H](C)O)[C@@H](C)CC)C(=O)N[C@@H](C)C(=O)N[C@@H](CCSC)C(=O)N[C@@H](CC(=O)O)C(=O)N[C@@H](CCCCN)C(=O)N[C@H](C(=O)N[C@@H](Cc1c[nH]cn1)C(=O)N[C@@H](CCC(N)=O)C(=O)N[C@@H](CCC(N)=O)C(=O)N[C@@H](CC(=O)O)C(=O)N[C@@H](Cc1ccccc1)C(=O)N[C@H](C(=O)N[C@@H](CC(N)=O)C(=O)N[C@@H](Cc1c[nH]c2ccccc12)C(=O)N[C@@H](CC(C)C)C(=O)N[C@@H](CC(C)C)C(=O)N[C@@H](C)C(=O)N[C@@H](CCC(N)=O)C(=O)N[C@@H](CCCCN)C(N)=O)C(C)C)[C@@H](C)CC
Question: Does B4 bind (human serum albumin)?
Answer: binds

B5: AT171 [hGIP(5-30)NH2[D9K]-C16diacid/9] (peptide)
peptide: TFISK(C16 diacid)YSIAMDKIHQQDFVNWLLAQK-NH2
modifications: N-terminus assumed
SMILES: CC[C@H](C)[C@H](NC(=O)[C@H](CO)NC(=O)[C@H](Cc1ccc(O)cc1)NC(=O)[C@H](CCCCNC(=O)CCCCCCCCCCCCCCC(=O)O)NC(=O)[C@H](CO)NC(=O)[C@@H](NC(=O)[C@H](Cc1ccccc1)NC(=O)[C@@H](N)[C@@H](C)O)[C@@H](C)CC)C(=O)N[C@@H](C)C(=O)N[C@@H](CCSC)C(=O)N[C@@H](CC(=O)O)C(=O)N[C@@H](CCCCN)C(=O)N[C@H](C(=O)N[C@@H](Cc1c[nH]cn1)C(=O)N[C@@H](CCC(N)=O)C(=O)N[C@@H](CCC(N)=O)C(=O)N[C@@H](CC(=O)O)C(=O)N[C@@H](Cc1ccccc1)C(=O)N[C@H](C(=O)N[C@@H](CC(N)=O)C(=O)N[C@@H](Cc1c[nH]c2ccccc12)C(=O)N[C@@H](CC(C)C)C(=O)N[C@@H](CC(C)C)C(=O)N[C@@H](C)C(=O)N[C@@H](CCC(N)=O)C(=O)N[C@@H](CCCCN)C(N)=O)C(C)C)[C@@H](C)CC
Question: Does B5 bind (human serum albumin)?
Answer: binds

B6: AT116 [hGIP(3-30)NH2-C12/18] (H18K) (peptide)
peptide: EGTFISDYSIAMDKIK(Lauroyl)QQDFVNWLLAQK-NH2
modifications: N-terminus assumed
SMILES: CCCCCCCCCCCC(=O)NCCCC[C@H](NC(=O)[C@@H](NC(=O)[C@H](CCCCN)NC(=O)[C@H](CC(=O)O)NC(=O)[C@H](CCSC)NC(=O)[C@H](C)NC(=O)[C@@H](NC(=O)[C@H](CO)NC(=O)[C@H](Cc1ccc(O)cc1)NC(=O)[C@H](CC(=O)O)NC(=O)[C@H](CO)NC(=O)[C@@H](NC(=O)[C@H](Cc1ccccc1)NC(=O)[C@@H](NC(=O)CNC(=O)[C@@H](N)CCC(=O)O)[C@@H](C)O)[C@@H](C)CC)[C@@H](C)CC)[C@@H](C)CC)C(=O)N[C@@H](CCC(N)=O)C(=O)N[C@@H](CCC(N)=O)C(=O)N[C@@H](CC(=O)O)C(=O)N[C@@H](Cc1ccccc1)C(=O)N[C@H](C(=O)N[C@@H](CC(N)=O)C(=O)N[C@@H](Cc1c[nH]c2ccccc12)C(=O)N[C@@H](CC(C)C)C(=O)N[C@@H](CC(C)C)C(=O)N[C@@H](C)C(=O)N[C@@H](CCC(N)=O)C(=O)N[C@@H](CCCCN)C(N)=O)C(C)C
Question: Which results are given for B6?
Answer: Fold change (IC50 2% HSA / IC50 0.1% casein) (human GIP receptor [1]): 5.2 fold; cAMP - antagonisme IC50 (human GIP receptor [2]): 11.9 nM; cAMP - antagonisme fold (paired) (human GIP receptor [2]): 1.2 fold; fold (paired) (human GIP receptor [3]): 5 fold; IC50 (human GIP receptor [4]): 321 nM; IC50 (human GIP receptor [5]): 61.5 nM; IC50 (human GIP receptor [6]): 71.2 nM

B7: AT117 [hGIP(3-30)NH2[H18K]-C16/18] (peptide)
peptide: EGTFISDYSIAMDKIK(Palmitoyl)QQDFVNWLLAQK-NH2
modifications: N-terminus assumed
SMILES: CCCCCCCCCCCCCCCC(=O)NCCCC[C@H](NC(=O)[C@@H](NC(=O)[C@H](CCCCN)NC(=O)[C@H](CC(=O)O)NC(=O)[C@H](CCSC)NC(=O)[C@H](C)NC(=O)[C@@H](NC(=O)[C@H](CO)NC(=O)[C@H](Cc1ccc(O)cc1)NC(=O)[C@H](CC(=O)O)NC(=O)[C@H](CO)NC(=O)[C@@H](NC(=O)[C@H](Cc1ccccc1)NC(=O)[C@@H](NC(=O)CNC(=O)[C@@H](N)CCC(=O)O)[C@@H](C)O)[C@@H](C)CC)[C@@H](C)CC)[C@@H](C)CC)C(=O)N[C@@H](CCC(N)=O)C(=O)N[C@@H](CCC(N)=O)C(=O)N[C@@H](CC(=O)O)C(=O)N[C@@H](Cc1ccccc1)C(=O)N[C@H](C(=O)N[C@@H](CC(N)=O)C(=O)N[C@@H](Cc1c[nH]c2ccccc12)C(=O)N[C@@H](CC(C)C)C(=O)N[C@@H](CC(C)C)C(=O)N[C@@H](C)C(=O)N[C@@H](CCC(N)=O)C(=O)N[C@@H](CCCCN)C(N)=O)C(C)C
Question: Does B7 bind (human serum albumin)?
Answer: binds
